In paper PMC3977044:
Like-named read-outs stand apart in the source and are kept apart here.

Experiments:
[1] = target: Mos1 transposase R48Q/Q100R (with T216A), DNA binding deficient mutant (Drosophila mauritiana); assay: SEC
[2] = target: Mos1 transposase D284A (with T216A), catalytically inactive mutant (Drosophila mauritiana); assay: SEC
[3] = target: Mos1 transposase R48Q/Q100R D284A (with T216A), DNA binding and catalytically inactive mutant (Drosophila mauritiana); assay: SEC
Mos1 transposase T216A [4] = target: T1, Mos1 transposase T216A (Drosophila mauritiana (mariner Mos1), UniProt Q7JQ07 1-345, T216A); assay: X-ray crystallography
T1 sequence: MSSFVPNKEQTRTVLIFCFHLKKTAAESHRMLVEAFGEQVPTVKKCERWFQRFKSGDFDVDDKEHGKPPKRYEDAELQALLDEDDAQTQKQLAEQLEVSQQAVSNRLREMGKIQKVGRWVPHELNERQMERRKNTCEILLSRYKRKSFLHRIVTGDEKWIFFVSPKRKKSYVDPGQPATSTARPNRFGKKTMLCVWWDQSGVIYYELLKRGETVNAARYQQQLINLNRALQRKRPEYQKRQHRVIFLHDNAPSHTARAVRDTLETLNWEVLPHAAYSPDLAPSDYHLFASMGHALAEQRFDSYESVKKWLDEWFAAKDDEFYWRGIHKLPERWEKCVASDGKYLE

Mos1 transposase T216A [5] = target: T1, Mos1 transposase T216A; assay: X-ray crystallography; remark: listed apart in the source
[6] = target: T2, Mos1 transposase R48Q/Q100R (Drosophila mauritiana (mariner Mos1), UniProt Q7JQ07 1-345, R48Q;Q100R;T216A); assay: EMSA
T2 sequence: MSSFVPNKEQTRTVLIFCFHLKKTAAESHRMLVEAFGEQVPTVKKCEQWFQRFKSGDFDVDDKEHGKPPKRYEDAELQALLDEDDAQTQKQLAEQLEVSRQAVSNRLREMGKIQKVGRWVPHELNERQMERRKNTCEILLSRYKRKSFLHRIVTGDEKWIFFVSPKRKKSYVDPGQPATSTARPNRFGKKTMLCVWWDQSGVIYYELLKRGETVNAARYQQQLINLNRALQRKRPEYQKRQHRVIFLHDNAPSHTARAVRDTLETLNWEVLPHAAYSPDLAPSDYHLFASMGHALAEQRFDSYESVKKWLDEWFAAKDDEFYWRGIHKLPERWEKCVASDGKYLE

“Mos1 transposase R48Q/Q100R (with T216A), DNA binding deficient mutant (enzyme)” showed a stoichiometry N [1] of 2.

For “Mos1 transposase D284A (with T216A), catalytically inactive mutant (enzyme)”, the stoichiometry N [2] was 2.

Work on “Mos1 transposase R48Q/Q100R D284A (with T216A), DNA binding and catalytically inactive mutant (enzyme)” yielded a stoichiometry N [3] of 2.

B1: IRR duplex with 5-iodo-dU at T16 (dsDNA)
DNA 1: AAACGACATTTCATACTTGTACACCTGA
DNA 2: GGTGTACAAGTATGAAATGTCGTTT
modifications: 5-iodo-dU replacing T16 (NTS nucleotide 13 by structure numbering); 5' phosphate on NTS presumed
B1: binds (Mos1 transposase T216A [4]).

B2: pre-cleaved IRR duplex (28 nt TS / 25 nt NTS) (dsDNA)
DNA 1: AAACGACATTTCATACTTGTACACCTGA
DNA 2: GGTGTACAAGTATGAAATGTCGTTT
modifications: 5' phosphate on NTS
B2: binds (Mos1 transposase T216A [5]).

B3: 100 bp IRR plus flank NTS cleavage substrate (dsDNA)
DNA 1: ACGGGCTCCAGTCGGTGAATATAGAAACTATCAGGTGTACAAGTATGAAATGTCGTTTTTTTTAAATCAAAAAACACGTTAAATTTTGTGGAAAAAGAAA
DNA 2: TTTCTTTTTCCACAAAATTTAACGTGTTTTTTGATTTAAAAAAAACGACATTTCATACTTGTACACCTGATAGTTTCTATATTCACCGACTGGAGCCCGT
B3: no binding [6].
